Assay results reported in the DeepSol protein solubility set.

Experiment: soluble on expression in E. coli; label from the status in PepcDB or PDB records

Sequence | soluble on expression in E. coli
MLEKYGRCRKRRLLKEVVLILLVAAVQPVLSSSKSTPEAQLTDVELTCPDDWIRHGTKCYLPFNIHQSWPFAMTTCQRYGSTLAKIQTGSENQFIASLLSKPGKPTEGKEYWIGLTVEVLDDDELYLWSDGTPTSRYVGFWRQDQPNFLNGSCALGKVERKDLEWRLDTCNLLRRFVCERPACVQGSYFCSSGSCISESKKCNGHNDCDDGSDEQNCPSAFQPNCRTYEKGESGQLSSTNYPNSYDPNLNCRHVLEGPINSRIELTIEHFETEPDFDILTVLDGGPAENSTTVIKRLSGSMETVQTITSATNMMIVQFRTDAQSNARGWQLKWRAVPFTCGGHFTAQAYIQSFVSPGYPKTFANGAECVWTVESTPGQVVSLIMKSGKTWG | not soluble
MNASSAPQQQQQQQQPQQGQAPQQQQQGPPQHQYQQQRPFHGRVQNHMRGSGPFGNSNGYGRYTAPRGDQQHHDSTPLSSVSSRRVPLPPTSQHRASSNFNTTPSSTNLYIRGLMPNTNDDLLREMCSKYGNIASTKAIMDKATNNCKGYGFVDFESPQAAAAAVDGLNTEGVQAQMAKLQQQEQDPTNLYIANLPLDFTEQMLETELNKFGMVISTRILRTPDNQSRGVGFARMDSKEKCEVIISALNGGRFDTMSKEGPALLIKQADTGRKSKVGSTSRHPSFQQFSSLGGPTAFLNGQHSMNNPEMLQRMQYPQVYQSYYGYHPAAVYQQHYDVNSLASQMGGMHVGGGNPQANGGGDMYGAHMYGQNAGGQGGQGVGQGGQGGNQQFYNPNNGRNKKYFQPMNPQ | not soluble
MESRKLISATDIQYSGSLLNSLNEQRGHGLFCDVTVIVEDRKFRAHKNILSASSTYFHQLFSVAGQVVELSFIRAEIFAEILNYIYSSKIVRVRSDLLDELIKSGQLLGVKFIAAL | soluble
MGSDKIHHHHHHYEKIYDVNHVCYYTLTSVELQKFVKTAEIITPLNADNKTTITKDTILVGNPEENPLTKKYIGFFKIKINKTFPGKNKGIIEKQIINGHTVILLAGSDIQGTYASIITFANLNDIPENPIICETSNKVNIYSTSLNSEYFRDFIEKNILTPKEIEKVKSLSYKLKGKDKKATIENIAKWVANNIKYDYDKCKKIESGKFSWDEYNTPSETVKTKKGVCLDYATLTSALLLNDNIIPYMLDVALYNTSSLKISSYHASVAVKIDNTYFVIDQQPYLIPINEYTAQTFEDNLRIASIVMFRVVKERDGIKLIKEKEVPGIAIYGDLINLLEMRFNN | not soluble
GMQQPTASVVSYVAEYHKATETTMGRYKKVIEITGHDEVAAKLLEGLIDAGTRYFSKVVEMEHRMASARFRLDGEELRELTETLDRSRRLAHESLISSLHVFNRYIVKEYGEELKEAGIEGGIFPKPEANRDRIAIADWAGELLTGIYENRHR | soluble
MASLSDQSGSIGSEQTRPSGAIPVESLPPQALEQLIASLQQEVEQLADALQQLNFANQRWTLCKQSIEAFAEETTRVDLPGAQSRATDAISSTASAKPETSVEVNQNQRLLVPLSRSLYVLGRVINPERCLIDIGTGYHVERKLADAAEFFDRRLKHVRGSMRQLTLKIDQNQQQMQTIREILVRKLAGAQQAAEHT | not soluble
MGSDKIHHHHHHMRIEVKLLPLKDNPILPFNYNYEVYSQILEKVNSIEPTIAKLLSSPHGFWTFSRIIVRKRKILPDKGIEILSDDVSLYISSSNEDIIRAIAEAVEKSPEFKIGELSFLVGDIKAIKVKELGKENVFSTLSPIVVRTVKFEGNKLRHWDLYPHDELFMDRLRKVMILRYSEVMGETPKDRDFTIEVLKFKPTRLMVGSSYIRGSLMVFRYAGSEEIARFGYENGFGEKTGLGFGMVKLIE | not soluble
MVEDPYIWMENLQDNRVREIIERENKKFREFIGELSDKLFPEVWEYFSIPTVTMAKITKRGIIVSYNEKDRSIIRWLDGDVIVDSKEIEREVGDEVLLQGFTADDEGEKLAYSFSIGGADEGITRIIDLKSGEVIEEIKPSIWNILFLKDGYYFARFYRKEKTPDGVDPPAERVFWKDKEGEKMVFGEGLTSGYFMTLRKSSDDKFAMLTLNYGWNQGEIYVGPIDKPQEWRKVYSATVPVEPVDIVNGKLYILTREGRGMGKVIAVKDGEIEEVIPEGEFPLEWAVIVDDKIVAGRLVHASHRLEVYTLKGEKIEEVTFDIPGALHPLDKNNKEVLLRYISFTIPYRLYEFKDKLRIIEERKVEGKFKVEEDFVVSKDGTRIHYFIIKGEKDEKKAWVFGYGGFNIALTPRFFPQVIPFLKRGGTFVMANLRGGSEYGEEWHRAGMRENKQNVFDDFIAVLEKLKKEGYKVAAWGRSNGGLLVSATLTQRPDIMDAALIGYPVIDMLRFHKLYIGSVWIPEYGNPDDPKDREFLLKYSPYHNVDPNKKYPLTLIYTGLHDDRVHPAHALKFFMKLKEVGAPVYLRVETKSGHMGASPETRARELTDLLAFVLKSLS | soluble
